Data: the supplement of paper PMC7125110
± gives the standard error. Fewer inactive variants are shown than the library holds.

B1: glmS ribozyme (parent)
chain: AUAAAAGCGCCAGAACUACAGAAAUGUAGUUGACGAGGAGGAGGUUUAUCGAAUUUUCGGCGGAUGCCUCCAAA

What was measured:
Settings in all cases: with glucosamine-6-phosphate
glucosamine-6-phosphate [1] = variants of: B1; assay: self-cleavage kobs at 160 uM GlcN6P; higher = faster cleavage; RNA array
Outline: (§1)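 Glucosamine-6-phosphate in HEPES/KCl/Mg(OAc)2 buffer, at 40 μM to 10 mM, was flowed over barcoded ribozyme variants transcribed in situ by E. coli RNA polymerase on sequenced MiSeq chips. Tracking was through a hybridised Cy3 probe at 37 °C. kobs, kcat and KM came from exponential decay fits and weighted Michaelis–Menten fits of normalised per-tile medians.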

glucosamine-6-phosphate [2] = variants of: B1; assay: self-cleavage kobs at 2500 uM GlcN6P; higher = faster cleavage; RNA array
Outline: as §1

glucosamine-6-phosphate [3] = variants of: B1; assay: self-cleavage kobs at 10000 uM GlcN6P; higher = faster cleavage; RNA array
Outline: as §1

glucosamine-6-phosphate [4] = variants of: B1; assay: self-cleavage kobs at 640 uM GlcN6P; higher = faster cleavage; RNA array
Outline: as §1

| Variant | self-cleavage kobs at 160 uM GlcN6P (glucosamine-6-phosphate [1]) [s⁻¹] | self-cleavage kobs at 2500 uM GlcN6P (glucosamine-6-phosphate [2]) [s⁻¹] | self-cleavage kobs at 10000 uM GlcN6P (glucosamine-6-phosphate [3]) [s⁻¹] | self-cleavage kobs at 640 uM GlcN6P (glucosamine-6-phosphate [4]) [s⁻¹] |
| --- | --- | --- | --- | --- |
| G35A C58U | < 1e-05 | < 1e-05 | < 1e-05 | – |
| U30G G38C | < 1e-05 | < 1e-05 | – | < 1e-05 |
| G43C A52C U57C | < 1e-05 | – | – | < 1e-05 |
| G9C U30G U45A | < 1e-05 | – | – | – |
| G9U C11U C34A G43U C61A C67G | < 1e-05 | – | – | – |
| G35A G43U C50G A64G | < 1e-05 | – | – | – |
| G35C A53G | < 1e-05 | < 1e-05 | < 1e-05 | < 1e-05 |
| C11G G63U | < 1e-05 | < 1e-05 | < 1e-05 | – |
| A12G G38U A52U A64U | < 1e-05 | < 1e-05 | – | < 1e-05 |
| C11U C70G | 0.000313 ± 0.00014 | 0.000104 ± 8.7e-06 | 6.56e-05 ± 5.5e-06 | 9e-05 ± 9.9e-06 |
| G13U G29A A52C | < 1e-05 | < 1e-05 | – | < 1e-05 |
| G13U G21U G37C | < 1e-05 | – | – | – |
| G37U G44A A52U A53U | < 1e-05 | < 1e-05 | – | < 1e-05 |
| C16A G29C C58U | < 1e-05 | – | – | – |
| A6U G35U A42C | < 1e-05 | – | – | < 1e-05 |
| C10G U31A U49G | < 1e-05 | – | – | – |
| C34A A39C U49A U55C | < 1e-05 | – | – | – |
| G13U G32U C34A G44A | < 1e-05 | < 1e-05 | – | – |
| G7A U56C | < 1e-05 | < 1e-05 | < 1e-05 | < 1e-05 |
| G40C G63A | < 1e-05 | < 1e-05 | < 1e-05 | < 1e-05 |
| G32U G59C | < 1e-05 | < 1e-05 | – | < 1e-05 |
| C11U U56A G66A | 4.3e-05 ± 1.4e-05 | 0.000197 ± 4.1e-05 | – | 8.42e-05 ± 1.7e-05 |
| A12C G37U C50G U54G | 4.97e-05 ± 2.2e-05 | 9.24e-05 ± 3.8e-05 | – | – |
| G7U G38C C50A | < 1e-05 | – | – | < 1e-05 |
| G41C G43A G44C C68U C71U | < 1e-05 | < 1e-05 | – | – |
| A33U A64G | < 1e-05 | – | 6.18e-05 ± 1.1e-05 | – |

| Variant | self-cleavage kobs at 160 uM GlcN6P (glucosamine-6-phosphate [1]) [s⁻¹] | self-cleavage kobs at 2500 uM GlcN6P (glucosamine-6-phosphate [2]) [s⁻¹] | self-cleavage kobs at 10000 uM GlcN6P (glucosamine-6-phosphate [3]) [s⁻¹] | self-cleavage kobs at 640 uM GlcN6P (glucosamine-6-phosphate [4]) [s⁻¹] |
| --- | --- | --- | --- | --- |
| A6C G29C C58G C71A | 6.35e-05 ± 1.9e-05 | – | – | 0.000108 ± 4.5e-05 |
| A39C A42C U46C | < 1e-05 | – | – | – |
| A14G G35U G60A C68G | < 1e-05 | – | – | – |
| A42U C61A | < 1e-05 | < 1e-05 | < 1e-05 | < 1e-05 |
| G7C A14U C16G U30A U56A C67G | < 1e-05 | – | – | < 1e-05 |
| C10U U49G | < 1e-05 | – | – | < 1e-05 |
| C10A A15G C34A G44A C67A C68A | < 1e-05 | < 1e-05 | – | < 1e-05 |
| A33U G37C U46C | < 1e-05 | < 1e-05 | – | < 1e-05 |
| U31A A64U | < 1e-05 | – | 4.44e-05 ± 1.1e-05 | – |
| C61U U65G | < 1e-05 | – | – | < 1e-05 |
| U46C U54A C61U | < 1e-05 | < 1e-05 | – | – |
| C16G G51U G60C | < 1e-05 | < 1e-05 | – | < 1e-05 |
| A15G G41U G62U | < 1e-05 | < 1e-05 | – | < 1e-05 |
| A14C G66A C71U | 0.000171 ± 5.4e-05 | 0.00114 ± 0.00023 | – | 0.000399 ± 9.8e-05 |
| G7C A14C U46G | < 1e-05 | < 1e-05 | – | < 1e-05 |
| C16G G35C A39G G60U C61U C68U C71A | < 1e-05 | < 1e-05 | – | < 1e-05 |
| G35C U47G U55G | < 1e-05 | – | < 1e-05 | – |
| A36G A42U U56C | < 1e-05 | < 1e-05 | – | < 1e-05 |
| C16U G32A G51U | < 1e-05 | – | – | – |
| A33C C50A C71G | < 1e-05 | – | – | – |
| G38C G41C | < 1e-05 | < 1e-05 | – | < 1e-05 |
| C10A U30G A48U | < 1e-05 | < 1e-05 | < 1e-05 | < 1e-05 |
| C10G C34G G38A U47A | < 1e-05 | – | – | – |
| G9A C50U G51U A52U | < 1e-05 | – | – | – |
| G59C G60A | < 1e-05 | < 1e-05 | – | – |
| G7U G35A G37C U46G U47A C70G | < 1e-05 | < 1e-05 | – | < 1e-05 |

| Variant | self-cleavage kobs at 160 uM GlcN6P (glucosamine-6-phosphate [1]) [s⁻¹] | self-cleavage kobs at 2500 uM GlcN6P (glucosamine-6-phosphate [2]) [s⁻¹] | self-cleavage kobs at 10000 uM GlcN6P (glucosamine-6-phosphate [3]) [s⁻¹] | self-cleavage kobs at 640 uM GlcN6P (glucosamine-6-phosphate [4]) [s⁻¹] |
| --- | --- | --- | --- | --- |
| A14G A33C U46G C58U G59U | < 1e-05 | < 1e-05 | – | < 1e-05 |
| C8A A12C | < 1e-05 | < 1e-05 | < 1e-05 | < 1e-05 |
| A53C G63A | < 1e-05 | – | < 1e-05 | < 1e-05 |
| C16A A52G G63U G66U | < 1e-05 | – | – | < 1e-05 |
| A33U G37A | < 1e-05 | – | – | – |
| A14U G43U G51C | < 1e-05 | – | – | – |
| G9A G43C G44C G62U | < 1e-05 | < 1e-05 | – | < 1e-05 |
| C8G A39U U69A | < 1e-05 | – | – | – |
| A15C A33U A36C A48C | < 1e-05 | < 1e-05 | – | < 1e-05 |
| A6G C34G G51U G63A | < 1e-05 | < 1e-05 | – | < 1e-05 |
| A36C A52C | < 1e-05 | – | < 1e-05 | – |
| C34U G37U | < 1e-05 | < 1e-05 | < 1e-05 | < 1e-05 |
| G7C C68U | < 1e-05 | < 1e-05 | < 1e-05 | < 1e-05 |
| G40C G60U C67G | < 1e-05 | < 1e-05 | – | < 1e-05 |
| C34A G38U A53C | < 1e-05 | < 1e-05 | – | < 1e-05 |
| G44U U49A U54A G62U | < 1e-05 | < 1e-05 | – | < 1e-05 |
| U30C G32U C34G C50G | 7.22e-05 ± 2.9e-05 | 9.31e-05 ± 2.4e-05 | – | 8.64e-05 ± 3.3e-05 |
| A36U U47A G66U C70G C71U | 4.68e-05 ± 2.2e-05 | 0.00104 ± 0.00043 | – | – |
| G13U C34A G40U C58A | < 1e-05 | – | – | < 1e-05 |
| C8A A53U U55G | < 1e-05 | – | – | < 1e-05 |
| A33G A48C A52G | < 1e-05 | – | – | < 1e-05 |
| A48U C68U C70U | < 1e-05 | – | – | – |
| C50G A52U U56G A64U | < 1e-05 | < 1e-05 | – | < 1e-05 |
| G44U U49C | < 1e-05 | – | < 1e-05 | < 1e-05 |
| U31G A39C U45A | 0.000229 ± 6.4e-05 | 0.00161 ± 0.00025 | – | 0.000642 ± 0.0001 |
| G9A C50A | < 1e-05 | < 1e-05 | < 1e-05 | < 1e-05 |

| Variant | self-cleavage kobs at 160 uM GlcN6P (glucosamine-6-phosphate [1]) [s⁻¹] | self-cleavage kobs at 2500 uM GlcN6P (glucosamine-6-phosphate [2]) [s⁻¹] | self-cleavage kobs at 10000 uM GlcN6P (glucosamine-6-phosphate [3]) [s⁻¹] | self-cleavage kobs at 640 uM GlcN6P (glucosamine-6-phosphate [4]) [s⁻¹] |
| --- | --- | --- | --- | --- |
| U30C G43U | < 1e-05 | < 1e-05 | < 1e-05 | – |
| A36U G43A A52U G63A C67A | < 1e-05 | – | – | – |
| C11U G29U G40A | < 1e-05 | – | 5.39e-05 ± 1.7e-05 | < 1e-05 |
| G9C A39C | < 1e-05 | < 1e-05 | < 1e-05 | < 1e-05 |
| C8G G60A C61A | < 1e-05 | < 1e-05 | < 1e-05 | – |
| A39G G51U G59U | < 1e-05 | – | < 1e-05 | < 1e-05 |
| A14U U45A U46A | 0.00056 ± 0.00015 | 0.00178 ± 0.00057 | – | – |
| A6C A15U | < 1e-05 | – | – | – |
| G29A U31C C34U | < 1e-05 | < 1e-05 | – | < 1e-05 |
| G40A C61U C68G C70G C71G | < 1e-05 | – | – | < 1e-05 |
| C8U A33G G37U G43C U54A U56C C67U | < 1e-05 | < 1e-05 | – | < 1e-05 |
| G9C C11G C61G G63U | < 1e-05 | < 1e-05 | – | – |
| G35C C50U A53C | < 1e-05 | < 1e-05 | – | < 1e-05 |
| C16U A53G U54C | 0.000683 ± 0.00013 | 0.00421 ± 0.00075 | – | 0.00193 ± 0.00028 |
| C16U U31A G43U A52U | < 1e-05 | < 1e-05 | – | < 1e-05 |
| A6U C10U | < 1e-05 | < 1e-05 | – | – |
| G35A U49A | < 1e-05 | – | < 1e-05 | < 1e-05 |
| A14G U56A C67A | 0.00127 ± 0.00033 | 0.00817 ± 0.0024 | – | 0.00567 ± 0.0018 |
| A33U U54G U56G C61G U69C | 9.03e-05 ± 2.7e-05 | 0.000171 ± 6e-05 | – | 0.00035 ± 0.00013 |
| C8A A12U C16G G41A C68A | < 1e-05 | < 1e-05 | – | < 1e-05 |
| G7A G29U | < 1e-05 | – | – | < 1e-05 |
| G7C G29U A33G | < 1e-05 | – | – | < 1e-05 |
| G35C G63C | < 1e-05 | < 1e-05 | – | < 1e-05 |
